Positions count from the first letter of the chain named. Blank lines part the entries; values can stand above or below the molecule they belong to.
Key:
[1] = target: human Gas6 recombinant protein (human) (UniProt Q14393); assay: ELISA, plate-coated test molecule, serially diluted hGas6
[2] = target: PD-L1 on PD-L1 aAPC/CHO-K1 cells (human) (UniProt Q9NZQ7); assay: cell-based or functional assay
[3] = target: Recombinant human PD-L1 protein (human) (UniProt Q9NZQ7); assay: ELISA, plate-coated recombinant human PD-L1, anti-human IgG-HRP

Sequence of UniProt Q14393 (Q14393 49-678 limits assumed): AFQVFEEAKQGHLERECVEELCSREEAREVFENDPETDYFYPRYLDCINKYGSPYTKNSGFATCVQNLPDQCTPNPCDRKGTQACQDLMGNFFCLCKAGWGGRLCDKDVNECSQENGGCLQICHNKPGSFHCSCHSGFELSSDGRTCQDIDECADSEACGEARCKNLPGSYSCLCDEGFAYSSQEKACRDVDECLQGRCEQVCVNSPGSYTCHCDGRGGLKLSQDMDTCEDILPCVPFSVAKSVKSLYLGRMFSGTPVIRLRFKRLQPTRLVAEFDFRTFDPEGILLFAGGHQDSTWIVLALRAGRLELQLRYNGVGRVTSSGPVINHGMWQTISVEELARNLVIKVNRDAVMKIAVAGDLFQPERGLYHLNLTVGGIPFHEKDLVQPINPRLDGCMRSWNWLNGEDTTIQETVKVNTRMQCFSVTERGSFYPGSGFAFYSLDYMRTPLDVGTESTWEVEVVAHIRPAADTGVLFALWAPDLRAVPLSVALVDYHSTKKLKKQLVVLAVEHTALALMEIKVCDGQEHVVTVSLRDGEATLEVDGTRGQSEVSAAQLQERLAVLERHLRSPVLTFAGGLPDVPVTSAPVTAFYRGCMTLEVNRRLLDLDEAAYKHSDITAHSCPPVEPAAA

- EC50 [1]: < 3 nM
Molecule: Axl-Fc (Fc fusion)

- PD-L1/PD-1 blockade assay, EC50 (luciferase in PD-1 effector cells) [2]: < 3 nM
- EC50 [3]: < 0.1 nM
B1: example_7 (protein, part only; not given: Fc, Gas6 trap, linkers, not shown: small tags and cut ends)
chain, part: EVQLQESGPGLVKPSQTLSLTCTVSGYSITSDYWNWIRKPPGKGLEYMGYISYTGSTYYNPSLKSRITISRDTSKNQYSLKLSSVTAADTAVYYCARRGEWLSPFAYWGQGTLVTVSSDIQMTQSPSSLSASVGDRVTITCKSSQSLLYSSNQKNSLAWYQQKPGKAPKLLIYWASTRESGVPSRFSGSGSGTDFTLTISSLQPEDFATYYCQQYYTYPFTFGQGTKLEIK

- PD-L1/PD-1 blockade assay, EC50 (luciferase in PD-1 effector cells) [2]: < 3 nM
- EC50 [3]: < 0.1 nM
B2: example_8 (protein, part only; not given: Fc, Gas6 trap, linkers, not shown: small tags and cut ends)
chain, part: B1 chain, part with N35D, K64R, E100G, A106V, S144R, Y149F

- PD-L1/PD-1 blockade assay, EC50 (luciferase in PD-1 effector cells) [2]: < 3 nM
- EC50 [3]: < 0.1 nM
B3: example_3 (protein, part only; not given: constant regions, Gas6 trap, linker, not shown: a dimerising Fc or GST; small tags and cut ends)
heavy, part: EVQLQESGPGLVKPSQTLSLTCTVSGYSITSDYWNWIRKPPGKGLEYMGYISYTGSTYYNPSLKSRITISRDTSKNQYSLKLSSVTAADTAVYYCARRGEWLSPFAYWGQGTLVTVSS
light: DIQMTQSPSSLSASVGDRVTITCKSSQSLLYSSNQKNSLAWYQQKPGKAPKLLIYWASTRESGVPSRFSGSGSGTDFTLTISSLQPEDFATYYCQQYYTYPFTFGQGTKLEIK

- PD-L1/PD-1 blockade assay, EC50 (luciferase in PD-1 effector cells) [2]: < 3 nM
- EC50 [3]: < 0.1 nM
B4: example_5 (protein, part only; not given: constant regions, Gas6 trap, linker, not shown: a dimerising Fc or GST; small tags and cut ends)
heavy, part: B3 heavy, part with N35D, K64R, E100G, A106V
light: B3 light with S26R, Y31F

— patent US20240218337A1
